# Reference: article PMC9333441
# Legend:
# [1] = target: ACE2 on Vero-E6 cells (African green monkey (endogenous in Vero-E6)); experiment: flow cytometry on cells
# human ACE2-Fc (human) = human ACE2-Fc (human) (UniProt Q9BYF1); experiment: BLI
substance,measurement,setting,value
soluble epitope-tagged RBD of Wuhan-Hu-1 SARS-CoV-2 (domain or fragment),EC50,[1],17.4 nM
same,Kd,human ACE2-Fc (human),9.3 nM
